Measured values taken from US20030124119A1 (published 2003).

B1: mouse monoclonal antibody #23-57-137-1 against human PTHrP (1-34) (antibody, V domains shown)
VH: EVQLVESGGDLVKPGGSLKLSCAASGFTFSSYGMSWIRQTPDKRLEWVATISSGGSYTYYPDSVKGRFTISRDNAKNTLYLQMSSLKSEDTAMFYCARQTTMTYFAYWGQGTLVTVSA
VL: QLVLTQSSSASFSLGASAKLTCTLSSQHSTYTIEWYQQQPLKPPKYVMDLKQDGSHSTGDGIPDRFSGSSSGADRYLSISNIQPEDEAMYICGVGDTIKEQFVYVFGGGTKVTVLG
notes: Mouse antibody from the hybridoma (FERM BP-5631); mouse λ L-chain; tested as hybridoma culture supernatant
B2: chimeric #23-57-137-1 antibody with L-chain κ chain C-region (antibody, V domains shown)
VH: EVQLVESGGDLVKPGGSLKLSCAASGFTFSSYGMSWIRQTPDKRLEWVATISSGGSYTYYPDSVKGRFTISRDNAKNTLYLQMSSLKSEDTAMFYCARQTTMTYFAYWGQGTLVTVSA
VL: QLVLTQSSSASFSLGASAKLTCTLSSQHSTYTIEWYQQQPLKPPKYVMDLKQDGSHSTGDGIPDRFSGSSSGADRYLSISNIQPEDEAMYICGVGDTIKEQFVYVFGGGTKVTVLG
notes: Mouse V-regions with human Cγ1 H-chain C-region and human κ C-region; expressed in COS-7 cells; also called chimeric antibody; MBC1HcDNA/pCOS1 and MBC1L(κ)/neo
B3: chimeric #23-57-137-1 antibody with L-chain λ chain C-region (antibody, V domains shown)
VH: EVQLVESGGDLVKPGGSLKLSCAASGFTFSSYGMSWIRQTPDKRLEWVATISSGGSYTYYPDSVKGRFTISRDNAKNTLYLQMSSLKSEDTAMFYCARQTTMTYFAYWGQGTLVTVSA
VL: QLVLTQSSSASFSLGASAKLTCTLSSQHSTYTIEWYQQQPLKPPKYVMDLKQDGSHSTGDGIPDRFSGSSSGADRYLSISNIQPEDEAMYICGVGDTIKEQFVYVFGGGTKVTVLG
notes: expressed in COS-7 cells; also called chimeric antibody; MBC1HcDNA/pCOS1 and MBC1L(λ)/neo
B4: humanized #23-57-137-1 antibody having L-chain version “s” (H-chain version “a”) (antibody, V domains shown)
VH: QVQLVESGGGVVQPGRSLRLSCAASGFTFSSYGMSWVRQAPGKGLEWVATISSGGSYTYYPDSVKGRFTISRDNSKNTLYLQMNSLRAEDTAVYYCARQTTMTYFAYWGQGTLVTVSS
VL: QLVLTQSPSASASLGASVKLTCTLSSQHSTYTIEWYQQQPEKGPKYVMDLKQDGSHSTGDGIPDRFSGSSSGAERYLTISSLQSEDEADYICGVGDTIKEQFVYVFGGGTKLTVLG
notes: also called hMBC1Lsλ
B5: mouse FR1,2/human FR3,4 hybrid antibody (L-chain m/hMBC1Ldλ, H-chain hMBC1HcDNA) (antibody, V domains shown)
VH: QVQLVESGGGVVQPGRSLRLSCAASGFTFSSYGMSWVRQAPGKGLEWVATISSGGSYTYYPDSVKGRFTISRDNSKNTLYLQMNSLRAEDTAVYYCARQTTMTYFAYWGQGTLVTVSS
VL: QLVLTQSSSASFSLGASAKLTCTLSSQHSTYTIEWYQQQPLKPPKYVMDLKQDGSHSTGDGIPDRFSGSSSGAERYLTISSLQSEDEADYICGVGDTIKEQFVYVFGGGTKLTVL
notes: Human Cγ1 and human λ C-regions
B6: human FR1/mouse FR2,3,4 hybrid antibody (L-chain hmmMBC1L(λ), H-chain hMBC1HcDNA) (antibody, V domains shown)
VH: QVQLVESGGGVVQPGRSLRLSCAASGFTFSSYGMSWVRQAPGKGLEWVATISSGGSYTYYPDSVKGRFTISRDNSKNTLYLQMNSLRAEDTAVYYCARQTTMTYFAYWGQGTLVTVSS
VL: QLVLTQSPSASASLGASVKLTCTLSSQHSTYTIEWYQQQPLKPPKYVMDLKQDGSHSTGDGIPDRFSGSSSGADRYLSISNIQPEDEAMYICGVGDTIKEQFVYVFGGGTKVTVL
notes: Human Cγ1 and human λ C-regions; also called FR1/FR2 hybrid antibody
B7: humanized #23-57-137-1 antibody having L-chain version “m” (H-chain version “a”) (antibody, V domains shown)
VH: QVQLVESGGGVVQPGRSLRLSCAASGFTFSSYGMSWVRQAPGKGLEWVATISSGGSYTYYPDSVKGRFTISRDNSKNTLYLQMNSLRAEDTAVYYCARQTTMTYFAYWGQGTLVTVSS
VL: QLVLTQSPSASASLGASVKLTCTLSSQHSTYTIEWYQQQPEKGPRYLMDLKQDGSHSTGDGIPDRFSGSSSGAERYLTISSLQSEDEADYYCGVGDTIKEQFVYVFGGGTKLTVLG
notes: Human Cγ1 and human λ C-regions; also called hMBC1Lmλ
B8: humanized #23-57-137-1 antibody having L-chain version “t” (H-chain version “a”) (antibody, V domains shown)
VH: QVQLVESGGGVVQPGRSLRLSCAASGFTFSSYGMSWVRQAPGKGLEWVATISSGGSYTYYPDSVKGRFTISRDNSKNTLYLQMNSLRAEDTAVYYCARQTTMTYFAYWGQGTLVTVSS
VL: QLVLTQSPSASASLGASVKLTCTLSSQHSTYTIEWYQQQPEKGPRYVMDLKQDGSHSTGDGIPDRFSGSSSGAERYLTISSLQSEDEADYICGVGDTIKEQFVYVFGGGTKLTVLG
notes: Human Cγ1 and human λ C-regions; also called hMBC1Ltλ
B9: humanized #23-57-137-1 antibody having L-chain version “o” (H-chain version “a”) (antibody, V domains shown)
VH: QVQLVESGGGVVQPGRSLRLSCAASGFTFSSYGMSWVRQAPGKGLEWVATISSGGSYTYYPDSVKGRFTISRDNSKNTLYLQMNSLRAEDTAVYYCARQTTMTYFAYWGQGTLVTVSS
VL: QLVLTQSPSASASLGASVKLTCTLSSQHSTYTIEWYQQQPEKGPRYVMDLKQDGSHSTGDGIPDRFSGSSSGAERYLTISSLQSEDEADYYCGVGDTIKEQFVYVFGGGTKLTVLG
notes: Human Cγ1 and human λ C-regions; also called hMBC1Loλ
B10: humanized #23-57-137-1 antibody having L-chain version “r” (H-chain version “a”) (antibody, V domains shown)
VH: QVQLVESGGGVVQPGRSLRLSCAASGFTFSSYGMSWVRQAPGKGLEWVATISSGGSYTYYPDSVKGRFTISRDNSKNTLYLQMNSLRAEDTAVYYCARQTTMTYFAYWGQGTLVTVSS
VL: QLVLTQSPSASASLGASVKLTCTLSSQHSTYTIEWYQQQPEKGPRYLMDLKQDGSHSTGDGIPDRFSGSSSGAERYLTISSLQSEDEADYICGVGDTIKEQFVYVFGGGTKLTVLG
notes: also called hMBC1Lrλ
B11: humanized #23-57-137-1 antibody having L-chain version “l” (H-chain version “a”) (antibody, V domains shown)
VH: QVQLVESGGGVVQPGRSLRLSCAASGFTFSSYGMSWVRQAPGKGLEWVATISSGGSYTYYPDSVKGRFTISRDNSKNTLYLQMNSLRAEDTAVYYCARQTTMTYFAYWGQGTLVTVSS
VL: QLVLTQSPSASASLGASVKLTCTLSSQHSTYTIEWYQQQPEKGPKYVMDLKQDGSHSTGDGIPDRFSGSSSGAERYLTISSLQSEDEADYYCGVGDTIKEQFVYVFGGGTKLTVLG
notes: Human Cγ1 and human λ C-regions; also called hMBC1Llλ
B12: humanized #23-57-137-1 antibody having L-chain version “q” (H-chain version “a”) (antibody, V domains shown)
VH: QVQLVESGGGVVQPGRSLRLSCAASGFTFSSYGMSWVRQAPGKGLEWVATISSGGSYTYYPDSVKGRFTISRDNSKNTLYLQMNSLRAEDTAVYYCARQTTMTYFAYWGQGTLVTVSS
VL: QLVLTQSPSASASLGASVKLTCTLSSQHSTYTIEWYQQQPEKGPKYLMDLKQDGSHSTGDGIPDRFSGSSSGAERYLTISSLQSEDEADYICGVGDTIKEQFVYVFGGGTKLTVLG
notes: Human Cγ1 and human λ C-regions; also called hMBC1Lqλ
B13: antibody having both a humanized H-chain version “a” and a chimeric L-chain (antibody, V domains shown)
VH: QVQLVESGGGVVQPGRSLRLSCAASGFTFSSYGMSWVRQAPGKGLEWVATISSGGSYTYYPDSVKGRFTISRDNSKNTLYLQMNSLRAEDTAVYYCARQTTMTYFAYWGQGTLVTVSS
VL: QLVLTQSSSASFSLGASAKLTCTLSSQHSTYTIEWYQQQPLKPPKYVMDLKQDGSHSTGDGIPDRFSGSSSGADRYLSISNIQPEDEAMYICGVGDTIKEQFVYVFGGGTKVTVLG
notes: Human Cγ1 H-chain C-region
B14: humanized #23-57-137-1 antibody having L-chain version “j” (H-chain version “a”) (antibody, V domains shown)
VH: QVQLVESGGGVVQPGRSLRLSCAASGFTFSSYGMSWVRQAPGKGLEWVATISSGGSYTYYPDSVKGRFTISRDNSKNTLYLQMNSLRAEDTAVYYCARQTTMTYFAYWGQGTLVTVSS
VL: QLVLTQSPSASASLGASVKLTCTLSSQHSTYTIEWYQQQPEKGPKYLMDLKQDGSHSTGDGIPDRFSGSSSGAERYLTISSLQSEDEADYYCGVGDTIKEQFVYVFGGGTKLTVLG
notes: Human Cγ1 and human λ C-regions; also called hMBC1Ljλ
B15: mouse FR1,2/human FR3,4 hybrid antibody (L-chain m/hMBC1Laλ, H-chain hMBC1HcDNA) (antibody, V domains shown)
VH: QVQLVESGGGVVQPGRSLRLSCAASGFTFSSYGMSWVRQAPGKGLEWVATISSGGSYTYYPDSVKGRFTISRDNSKNTLYLQMNSLRAEDTAVYYCARQTTMTYFAYWGQGTLVTVSS
VL: QLVLTQSSSASFSLGASAKLTCTLSSQHSTYTIEWYQQQPLKPPKYVMDLKQDGSHSTGDGIPDRFSGSSSGAERYLTISSLQSEDEADYYCGVGDTIKEQFVYVFGGGTKLTVL
notes: as for B5

Tests used:
[1] = target: T1, human PTHrP (1-34) (human); test: solid phase RIA of hybridoma culture supernatants
T1 construct: Coated on ELISA plates (Peptide Research Institute) and used in RIA screening and the cAMP assay
Procedure: The screening of hybridomas was performed by determining the presence of PTHrP-recognition antibodies in the culture supernatant of the wells in which cell growth had been observed in HAT medium, by solid phase RIA method. The hybridomas were collected from the wells in which the binding ability to the PTHrP-recognition antibodies had been confirmed. The hybridomas thus obtained was suspended into RPMI-1640 medium containing 15% FCS supplemented with OPI-supplement (Sigma), followed by unification of the hybridomas by limiting dilution method.

[2] = target: T1, human PTHrP (1-34); test: ELISA, plate coated with 1 µg/ml human PTHrP (1-34)
Procedure: An ELISA plate for the determination of antigen-binding ability was prepared as follows. Each well of a 96-well ELISA plate was coated with 100 μl of a coating buffer supplemented with 1 μg/ml of human PTHrP (1-34) (Peptide Research Institute), and then blocked with 200 μl of a dilution buffer. Each well was added with each of the serial dilutions of the COS-7 cell culture supernatant in which each of the chimeric antibodies had been expressed, or added with each of the serial dilutions of each of the chimeric antibodies per se in a purified form. After the plate was incubated at room temperature and washed with PBS-Tween 20, each well of the plate was added with 100 μl of a solution of alkaline phosphatase-conjugated goat anti-human IgG antibodies (TAGO). After the plate was incubated at room temperature and washed with PBS-Tween 20, each well of the plate was added with 1 mg/ml of a substrate solution (“Sigma 104”, p-nitrophenylphosphoric acid, SIGMA). The solution was measured on its absorbance at 405 nm using Microplate Reader (Bio Rad).
An ELISA plate for determining antigen-binding ability was prepared as follows. Each well of a 96-well ELISA plate (Maxisorp, NUNC) was coated with 100 μl of a coating buffer containing 1 μg/ml of human PTHrP (1-34) and then blocked with 200 μl of a dilution buffer. Subsequently, each well was added with each of the serial dilutions of the COS-7 cell culture supernatant in which each of the hybrid antibodies and humanized antibodies was expressed, or added with each of the serial dilutions of each of the hybrid antibodies and humanized antibodies in a purified form. The plate was incubated at room temperature and washed with PBS-Tween 20. Subsequently, each well was added with 100 μl of alkaline phosphatase-conjugated goat anti-human IgG antibody (TAGO). The plate was incubated at room temperature and washed with PBS-Tween 20. Subsequently, each well was added with 1 mg/ml of a substrate solution (“Sigma 104”, p-nitrophenylphosphoric acid, SIGMA). The solution was measured on its absorbance at 405 nm using Microplate Reader (Bio Rad).

Row | Binder | binding result [1] | binding result [2]
1 | B1 | binds | 
2 | B2 |  | binds
3 | B3 |  | binds
4 | B4 |  | binds
5 | B5 |  | binds
6 | B6 |  | binds
7 | B7 |  | binds
8 | B8 |  | binds
9 | B9 |  | binds
10 | B10 |  | binds
11 | B11 |  | binds
12 | B12 |  | binds
13 | B13 |  | binds
14 | B14 |  | binds
15 | B15 |  | binds
